System: Escherichia coli TOP10
Assay: shrunken log2 fold change of peptide-encoding DNA abundance (4.5 h post-induction vs induction); higher = less antimicrobial activity (less host growth inhibition)
Settings: time post-induction: 4.5 h; library: site-saturation at positions 5, 18, 19, 20
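Also: peptides expressed intracellularly from a pBAD plasmid library in pooled LB shake-flask culture, induced with 0.3% L-arabinose, DNA abundance read by NGS, three biological replicates, DESeq2 with apeglm shrinkage.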

RRIRERPPRLPRPRPRPYQCPRP
shrunken log2 fold change: -0.00884

RRIRLRPPRLPRPRPRPHEEPRP
shrunken log2 fold change: 0.13

RRIRFRPPRLPRPRPRPVKCPRP
shrunken log2 fold change: -0.0573

RRIRIRPPRLPRPRPRPVADPRP
shrunken log2 fold change: 0.0861

RRIRRRPPRLPRPRPRPCIVPRP
shrunken log2 fold change: -0.183

RRIRQRPPRLPRPRPRPSIEPRP
shrunken log2 fold change: -0.373

RRIRSRPPRLPRPRPRPCICPRP
shrunken log2 fold change: -0.209

RRIRARPPRLPRPRPRPRVHPRP
shrunken log2 fold change: 0.555

RRIRKRPPRLPRPRPRPDQPPRP
shrunken log2 fold change: -0.018

RRIRFRPPRLPRPRPRPYVVPRP
shrunken log2 fold change: -0.252

RRIRDRPPRLPRPRPRPLQVPRP
shrunken log2 fold change: 0.0133

RRIRWRPPRLPRPRPRPWIPPRP
shrunken log2 fold change: -0.0989

RRIRWRPPRLPRPRPRPKQFPRP
shrunken log2 fold change: 0.207

RRIRPRPPRLPRPRPRPPLMPRP
shrunken log2 fold change: 0.199

RRIRIRPPRLPRPRPRPSLKPRP
shrunken log2 fold change: -0.154

RRIRFRPPRLPRPRPRPNSRPRP
shrunken log2 fold change: -0.0396

RRIRCRPPRLPRPRPRPSFAPRP
shrunken log2 fold change: -0.0835

RRIRSRPPRLPRPRPRPHPKPRP
shrunken log2 fold change: 0.12

RRIRIRPPRLPRPRPRPAAVPRP
shrunken log2 fold change: -0.181

RRIRARPPRLPRPRPRPCSHPRP
shrunken log2 fold change: 0.0574

RRIRDRPPRLPRPRPRPKELPRP
shrunken log2 fold change: 0.0843

RRIRNRPPRLPRPRPRPAGMPRP
shrunken log2 fold change: -0.126

RRIRHRPPRLPRPRPRPHPDPRP
shrunken log2 fold change: -0.206

RRIRMRPPRLPRPRPRPEQLPRP
shrunken log2 fold change: 1.94

RRIRPRPPRLPRPRPRPGVYPRP
shrunken log2 fold change: 0.0962

RRIRPRPPRLPRPRPRPIWDPRP
shrunken log2 fold change: -0.0628

RRIRGRPPRLPRPRPRPFHAPRP
shrunken log2 fold change: -0.13

RRIRARPPRLPRPRPRPKSNPRP
shrunken log2 fold change: 0.253

RRIRMRPPRLPRPRPRPRVSPRP
shrunken log2 fold change: 0.0315

RRIRQRPPRLPRPRPRPHGKPRP
shrunken log2 fold change: -0.352

RRIRMRPPRLPRPRPRPHMNPRP
shrunken log2 fold change: -0.0129

RRIRWRPPRLPRPRPRPCANPRP
shrunken log2 fold change: 0.0268

RRIRPRPPRLPRPRPRPQPRPRP
shrunken log2 fold change: 0.603

RRIRKRPPRLPRPRPRPGQAPRP
shrunken log2 fold change: 0.383

RRIRTRPPRLPRPRPRPLFIPRP
shrunken log2 fold change: -0.746

RRIRCRPPRLPRPRPRPLWRPRP
shrunken log2 fold change: 0.397

RRIRCRPPRLPRPRPRPWSMPRP
shrunken log2 fold change: -0.308

RRIRRRPPRLPRPRPRPQQGPRP
shrunken log2 fold change: 0.0446

RRIRTRPPRLPRPRPRPKYAPRP
shrunken log2 fold change: -0.495

RRIRGRPPRLPRPRPRPCRQPRP
shrunken log2 fold change: 0.436

RRIRERPPRLPRPRPRPYGIPRP
shrunken log2 fold change: -0.00973

RRIRPRPPRLPRPRPRPSMLPRP
shrunken log2 fold change: -0.186

RRIRTRPPRLPRPRPRPRPDPRP
shrunken log2 fold change: 1.44

RRIRYRPPRLPRPRPRPAPEPRP
shrunken log2 fold change: 0.134

RRIRKRPPRLPRPRPRPYMYPRP
shrunken log2 fold change: -0.445

RRIRGRPPRLPRPRPRPDQTPRP
shrunken log2 fold change: 0.0112

RRIRKRPPRLPRPRPRPCQMPRP
shrunken log2 fold change: -0.0362

RRIRVRPPRLPRPRPRPRSKPRP
shrunken log2 fold change: -0.108

RRIRERPPRLPRPRPRPQRCPRP
shrunken log2 fold change: -0.0721

RRIRHRPPRLPRPRPRPGLDPRP
shrunken log2 fold change: 0.269

RRIRERPPRLPRPRPRPLFAPRP
shrunken log2 fold change: -0.0197

RRIRRRPPRLPRPRPRPTFDPRP
shrunken log2 fold change: 0.425

RRIRARPPRLPRPRPRPSQFPRP
shrunken log2 fold change: -0.0956

RRIRDRPPRLPRPRPRPKCCPRP
shrunken log2 fold change: 0.112

RRIRQRPPRLPRPRPRPPNHPRP
shrunken log2 fold change: -0.157

RRIRGRPPRLPRPRPRPQRQPRP
shrunken log2 fold change: 0.687

RRIRRRPPRLPRPRPRPMLMPRP
shrunken log2 fold change: 0.122

RRIRCRPPRLPRPRPRPCMRPRP
shrunken log2 fold change: 0.0312

RRIRKRPPRLPRPRPRPQTCPRP
shrunken log2 fold change: -0.132

RRIRKRPPRLPRPRPRPPYTPRP
shrunken log2 fold change: 0.0509

RRIRVRPPRLPRPRPRPVNCPRP
shrunken log2 fold change: -0.17

RRIRARPPRLPRPRPRPCFFPRP
shrunken log2 fold change: 0.145

RRIRSRPPRLPRPRPRPEHMPRP
shrunken log2 fold change: -0.391

RRIRSRPPRLPRPRPRPNMEPRP
shrunken log2 fold change: -0.154

RRIRQRPPRLPRPRPRPKMRPRP
shrunken log2 fold change: 0.0141

RRIRFRPPRLPRPRPRPGPIPRP
shrunken log2 fold change: 0.218

RRIRPRPPRLPRPRPRPTMVPRP
shrunken log2 fold change: -0.0466

RRIRFRPPRLPRPRPRPKSWPRP
shrunken log2 fold change: 0.199

RRIRHRPPRLPRPRPRPMQMPRP
shrunken log2 fold change: -0.00907

RRIRTRPPRLPRPRPRPYPKPRP
shrunken log2 fold change: -0.0976

RRIRWRPPRLPRPRPRPRQWPRP
shrunken log2 fold change: 0.0802

RRIRRRPPRLPRPRPRPWWKPRP
shrunken log2 fold change: 0.226

RRIRPRPPRLPRPRPRPDECPRP
shrunken log2 fold change: -0.041

RRIRTRPPRLPRPRPRPQFRPRP
shrunken log2 fold change: -0.132

RRIRVRPPRLPRPRPRPCVIPRP
shrunken log2 fold change: -0.0142

RRIRVRPPRLPRPRPRPCGSPRP
shrunken log2 fold change: -0.225

RRIRDRPPRLPRPRPRPEATPRP
shrunken log2 fold change: 1.98

RRIRPRPPRLPRPRPRPREFPRP
shrunken log2 fold change: 0.485

RRIRNRPPRLPRPRPRPRIYPRP
shrunken log2 fold change: -0.0955

RRIRGRPPRLPRPRPRPLDQPRP
shrunken log2 fold change: 1.01

RRIRRRPPRLPRPRPRPFKQPRP
shrunken log2 fold change: -0.182

RRIRQRPPRLPRPRPRPQVLPRP
shrunken log2 fold change: 0.00177

RRIRDRPPRLPRPRPRPMLEPRP
shrunken log2 fold change: 0.358

RRIRIRPPRLPRPRPRPKCHPRP
shrunken log2 fold change: -0.199

RRIRHRPPRLPRPRPRPHPNPRP
shrunken log2 fold change: -0.063

RRIRVRPPRLPRPRPRPPMSPRP
shrunken log2 fold change: -0.249

RRIRYRPPRLPRPRPRPKHNPRP
shrunken log2 fold change: -0.68

RRIRFRPPRLPRPRPRPEVWPRP
shrunken log2 fold change: 0.273

RRIRKRPPRLPRPRPRPYFKPRP
shrunken log2 fold change: -0.382

RRIRKRPPRLPRPRPRPKMQPRP
shrunken log2 fold change: 0.00648

RRIRKRPPRLPRPRPRPRWVPRP
shrunken log2 fold change: 0.642

RRIRQRPPRLPRPRPRPNMQPRP
shrunken log2 fold change: -0.619

RRIRRRPPRLPRPRPRPHNNPRP
shrunken log2 fold change: -0.508

RRIRERPPRLPRPRPRPNRPPRP
shrunken log2 fold change: -0.123

RRIRKRPPRLPRPRPRPWDMPRP
shrunken log2 fold change: 0.142

RRIRWRPPRLPRPRPRPDSSPRP
shrunken log2 fold change: -0.238

RRIRARPPRLPRPRPRPAHSPRP
shrunken log2 fold change: 0.469

RRIRQRPPRLPRPRPRPYWMPRP
shrunken log2 fold change: 0.0425

RRIRERPPRLPRPRPRPIAMPRP
shrunken log2 fold change: 0.188

RRIRFRPPRLPRPRPRPRSGPRP
shrunken log2 fold change: 0.444

RRIRYRPPRLPRPRPRPHFHPRP
shrunken log2 fold change: -0.489

RRIRARPPRLPRPRPRPTPRPRP
shrunken log2 fold change: 1.5

RRIRARPPRLPRPRPRPREDPRP
shrunken log2 fold change: 0.879

RRIRLRPPRLPRPRPRPLGLPRP
shrunken log2 fold change: -0.253

RRIRKRPPRLPRPRPRPQCRPRP
shrunken log2 fold change: 0.162

RRIRRRPPRLPRPRPRPKIGPRP
shrunken log2 fold change: 0.396

RRIRFRPPRLPRPRPRPTHFPRP
shrunken log2 fold change: -0.227

RRIRARPPRLPRPRPRPSQVPRP
shrunken log2 fold change: 0.0429

RRIRWRPPRLPRPRPRPCTPPRP
shrunken log2 fold change: -0.0412

RRIRDRPPRLPRPRPRPNSGPRP
shrunken log2 fold change: -0.269

RRIRFRPPRLPRPRPRPTRGPRP
shrunken log2 fold change: 0.54

RRIRFRPPRLPRPRPRPIILPRP
shrunken log2 fold change: -1.74

RRIRDRPPRLPRPRPRPWGRPRP
shrunken log2 fold change: 0.258

RRIRYRPPRLPRPRPRPKTQPRP
shrunken log2 fold change: 0.0853

RRIRVRPPRLPRPRPRPQVYPRP
shrunken log2 fold change: -0.0131

RRIRKRPPRLPRPRPRPFNKPRP
shrunken log2 fold change: -0.0789

RRIRARPPRLPRPRPRPPKRPRP
shrunken log2 fold change: 0.485

RRIRSRPPRLPRPRPRPFTMPRP
shrunken log2 fold change: -0.811

RRIRIRPPRLPRPRPRPQECPRP
shrunken log2 fold change: -0.0195

RRIRDRPPRLPRPRPRPRSPPRP
shrunken log2 fold change: -0.183

RRIRYRPPRLPRPRPRPKMCPRP
shrunken log2 fold change: 0.00281

RRIRNRPPRLPRPRPRPPSNPRP
shrunken log2 fold change: -0.135

RRIRSRPPRLPRPRPRPGMKPRP
shrunken log2 fold change: -0.0636

RRIRVRPPRLPRPRPRPAIEPRP
shrunken log2 fold change: 0.0433

RRIRGRPPRLPRPRPRPMCSPRP
shrunken log2 fold change: 0.606

— the supplement of paper PMC9112550, “Optimization of the antimicrobial peptide Bac7 by deep mutational scanning” (BMC Biology, 2022)
